Publication PMC7876548
pKd: −log10 of the molar value.

Target: unmethylated D2 peptide (amino acids 208-243 of the third intracellular loop of the human D2 receptor) (human) (UniProt P14416)
Experiment: fluorescence polarisation; anisotropy; fluorescently labelled D2 peptide at 0.025 µM final, Par-4 or CaM added from 10x stocks of 0-20 µM; 200 mM NaCl, 200 µM CaCl2, 50 mM Tris pH 7.5; room temperature, ten minutes; average of four trials

Sequence of unmethylated D2 peptide (amino acids 208-243 of the third intracellular loop of the human D2 receptor) (human) (P14416 208-243): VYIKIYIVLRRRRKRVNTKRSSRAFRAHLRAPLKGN

- pKd: 7.67
Substance: human Par-4 (prostate apoptosis response 4 protein) (from UniProt Q96IZ0 1-340) (natural protein)
